Common to all, as to settings: protein: recombinant; tags: N-terminal 6xHis; chain copies: 4; blunt
Data set [1] deals with T1, 6xHis-SlmA-T33A (Escherichia coli, UniProt P0C093 1-198, T33A).
T1 sequence: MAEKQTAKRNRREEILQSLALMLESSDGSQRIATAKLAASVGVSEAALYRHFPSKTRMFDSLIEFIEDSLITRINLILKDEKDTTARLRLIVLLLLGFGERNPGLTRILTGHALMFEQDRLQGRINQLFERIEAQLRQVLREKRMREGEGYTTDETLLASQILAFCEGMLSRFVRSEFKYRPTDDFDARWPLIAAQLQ
The data set can be described thus: BLI; 4 uM SlmA; BLI in 1x Pol buffer: 50 mM HEPES-NaOH pH 8.0, 200 mM KCl, 10 mM MgCl2, room temperature; 50 nM biotinylated SBS17 on streptavidin tips.

For data set [2], the target named is T2, 6xHis-SlmA WT (Escherichia coli, UniProt P0C093 1-198).
T2 sequence: T1 sequence with A33T
The data set can be described thus: BLI; kon 3.24e4 1/(M*s), koff 2.04e-3 1/s, R2 0.98; BLI in 1x Pol buffer: 50 mM HEPES-NaOH pH 8.0, 200 mM KCl, 10 mM MgCl2, room temperature; 50 nM biotinylated SBS17 on streptavidin tips.

Data set [3] deals with T3, 6xHis-SlmA-R73D (Escherichia coli, UniProt P0C093 1-198, R73D).
T3 sequence: T1 sequence with A33T, R73D
The data set can be described thus: BLI; 4 uM SlmA; binds like WT; BLI in 1x Pol buffer: 50 mM HEPES-NaOH pH 8.0, 200 mM KCl, 10 mM MgCl2, room temperature; 50 nM biotinylated SBS17 on streptavidin tips.

The target of data set [4] is T4, 6xHis-SlmA-F65A (Escherichia coli, UniProt P0C093 1-198, F65A).
T4 sequence: T1 sequence with A33T, F65A
Described as above.

Substitutions are numbered along the chain they refer to.

B1: biotinylated SBS17-30mer (dsDNA)
DNA 1: CAAAAGTAAGTAAATGGTCACTAACGTTGA
DNA 2: TCAACGTTAGTGACCATTTACTTACTTTTG
As for B1, the binding result in data set [1] is “no binding”; in data set [3], “binds”; in data set [4], “binds”. The dissociation constant Kd in data set [2] was determined as 62.9 nM.

The record behind these values is PMC4117426, “SlmA Antagonism of FtsZ Assembly Employs a Two-pronged Mechanism like MinCD”.
